Laboratory results as given in patent US20220389406A1.

Target: HLA-A*02:01-restricted MART-1 epitope, A*02:0
Experiment: cell-based or functional assay

DMF4 (TCR)
frequency of the TCR in post-real-selection (CD137-positive, sorted) against pre-selection polyclonal TCR-T cells, by NGS: 10 fold
